B1: LINE1-mini (parent)
chain: GGCAGAGCUCAACACAGCGUGGCAAAGUGGCUGUGGCUAGACUGCC

Variants of: B1
Assay: self-cleavage, relative activity (ratio to wild type); higher = more cleavage; in vitro, sequencing; the parent is a self-cleaving ribozyme

Variant	self-cleavage
GGCAGAGCUCAACACAGCGUGGCAAAGUGGCUGUGACUAGACUGCG [G36A C46G]	0.34
GGCAGAGUUCAACACAGCGUGGCAAAGUGGCUGUGGCUAUACUGCC [C8U G40U]	0.29
GGCAGAGCUCAACACAGCGUUGCAAAGUGGUUGUGGCUAGACUGCC [G21U C31U]	0.3
GGCAGAGCUUAACACAGCGUGGCAACGUGGCUGUGGCUAGACUGCC [C10U A26C]	0.31
UGCAGAGCUCAACACAGCGUGGCAAAGUGGCCGUGGCUAGACUGCC [G1U U32C]	0.08
GGCAGAGCUCAGCACAGCGUGGCAAAGUGGCUGUGGCUAGACAGCC [A12G U43A]	0.12
GGCAGAGCUCAACACAGCGUGGCAAACUGGCUGUGGGUAGACUGCC [G27C C37G]	0.02
GGCAGAGCUCAACACAGCGUGGCAAAGUGGAUGUGGCUAGCCUGCC [C31A A41C]	0.03
GGCAGAGCUCAACACAGUGUGGCAAAGUGGCUGUGGCUAGACAGCC [C18U U43A]	0.06
GGCAGAACUCAUCACAGCGUGGCAAAGUGGCUGUGGCUAGACUGCC [G7A A12U]	0.15
GGCAGAGCUCAACACAGCGUGGCAAAGUGGCUGUCGCUAUACUGCC [G35C G40U]	0.09
GGCAGAGCUCAACACAGCGUGGCAUCGUGGCUGUGGCUAGACUGCC [A25U A26C]	1.79
GGCAGAGCUCAACACAGCAUGGCAAAGUGGCUGUCGCUAGACUGCC [G19A G35C]	0.21
GGCAGAGCUCAACACAGCGUGGGAAAGUGGCUGUGUCUAGACUGCC [C23G G36U]	0.07
GGGAGAGCUCAACUCAGCGUGGCAAAGUGGCUGUGGCUAGACUGCC [C3G A14U]	0.32
GGCAGAGCUCAACACAGCGUGGCAACGUGGCUGUGGCUAAACUGCC [A26C G40A]	0.12
GGCAGAGCUCAACACAGCGUGGCAAAGUGUCUGUGGCUACACUGCC [G30U G40C]	0.09
GGCAGAGGUCAACACCGCGUGGCAAAGUGGCUGUGGCUAGACUGCC [C8G A16C]	0.11
GGCAGAGCUCAACACAGCGUGGCAAAGUGGCAGAGGCUAGACUGCC [U32A U34A]	0.05

Variant	self-cleavage
GGCAGAGCUCAACACAGCAGGGCAAAGUGGCUGUGGCUAGACUGCC [G19A U20G]	0.59
GGCAGAGCGCAACACAGCGUGGCAAAGUGGCUGUUGCUAGACUGCC [U9G G35U]	0.07
GGCAGAGCUCAACACAACGUGGCAAAGUGGCUGUGGCUAGAUUGCC [G17A C42U]	0.1
GGCAGAGCUCAACACAGCGUGGAUAAGUGGCUGUGGCUAGACUGCC [C23A A24U]	1
GGCAGUGCUCAACACACCGUGGCAAAGUGGCUGUGGCUAGACUGCC [A6U G17C]	0.59
GGCAGAGCUCAACACAGCGUUGCAAAGUGGCUGUGGCUAGAAUGCC [G21U C42A]	0.23
GACAGAGCUCAACACAGCGUGGCAAAGUGGCCGUGGCUAGACUGCC [G2A U32C]	0.24
GGCAGCGCUCAACACUGCGUGGCAAAGUGGCUGUGGCUAGACUGCC [A6C A16U]	0.09
AGCAGGGCUCAACACAGCGUGGCAAAGUGGCUGUGGCUAGACUGCC [G1A A6G]	0.09
GGCAGAGCUCAGCACAGCGUGGCAAAGUGGCUGUGGCUAGACUGCC [A12G]	0.04
GGCAGAGCUUAACAGAGCGUGGCAAAGUGGCUGUGGCUAGACUGCC [C10U C15G]	0.05
GGCAGUGCUCAACACAGCGUUGCAAAGUGGCUGUGGCUAGACUGCC [A6U G21U]	0.76
GGCAGAGCUCAACACAGCGUGGCAAAGUGGCUGUGAGUAGACUGCC [G36A C37G]	0.05
GGCAGAGCUCAACACAGCGUGGCAAAGUGGCUGUGGCAAGUCUGCC [U38A A41U]	0.1
GGCAGAGCUCAACACAGCGUGGCAAAGUGGCUGUGGCAAGCCUGCC [U38A A41C]	0.04
GGCAGAACUCAACACAGCGUGGCAAAGUGGCUGUGGCCAGACUGCC [G7A U38C]	0.1
GGCAGAGCUCAACACAGCGUGGCAAAGUGGCUAUGGCUAGACUGCC [G33A]	0.11
GGCAGAGCUCAACACGGCGUGGCAAAGUGGCUGAGGCUAGACUGCC [A16G U34A]	0.02
GGCAGAGCUCAACACAGCGUUGCAAGGUGGCUGUGGCUAGACUGCC [G21U A26G]	1.29

Variant	self-cleavage
GGCAGAGCUCAACACAGCGUGGCAAAGUUGCUGUGGCAAGACUGCC [G29U U38A]	0.4
GGCAGAGCUCAACACAGCGUGGCAAAGUGGCUGUCACUAGACUGCC [G35C G36A]	0.05
GGCAGAGCUCAACACAGCGUGGCAAAGUGGUUGUGGCCAGACUGCC [C31U U38C]	0.14
GGCAGAGCUCAACACCGCGUGGCAAUGUGGCUGUGGCUAGACUGCC [A16C A26U]	0.05
GGCAGAGCGCAACACAGCGUGUCAAAGUGGCUGUGGCUAGACUGCC [U9G G22U]	0.19
GGCAGAGCUCAACACAACGUUGCAAAGUGGCUGUGGCUAGACUGCC [G17A G21U]	0.83
GGCAGACCUAAACACAGCGUGGCAAAGUGGCUGUGGCUAGACUGCC [G7C C10A]	0.04
GGCAGAGCUCAACACAGCGUGGCAAAGCGGCUGUGGCUAGCCUGCC [U28C A41C]	0.03
GCUAGAGCUCAACACAGCGUGGCAAAGUGGCUGUGGCUAGACUGCC [G2C C3U]	0.54
GGCAGAGCUCAACACAGCGUGGCAAAGUGGCUCUGGCUAGACCGCC [G33C U43C]	0.03
GGCAGAGCUCAACACAGCGUGGCAAAGUGGCUCUGGCUAGACAGCC [G33C U43A]	0.12
GGCAGAGCUCAACACAGCGUGUCAAAGUGGCUCUGGCUAGACUGCC [G22U G33C]	0.07
GGCAGAGCUCAAUACAGCGUGGCAAAGUGGCUGUGGCUAGUCUGCC [C13U A41U]	0.15
GGCAGAGCUCAGUACAGCGUGGCAAAGUGGCUGUGGCUAGACUGCC [A12G C13U]	0.06
GGCAGAGCUCGACACAGCGUGGCAAAGUGGCUGCGGCUAGACUGCC [A11G U34C]	0.03
GGCAAAGCUCAACACAGCGUGGCAAAGUUGCUGUGGCUAGACUGCC [G5A G29U]	0.13
GGCAGGGCUCAACACAGCGUGGCAAAGUGGCUGUGGCUAGACCGCC [A6G U43C]	0.09
GGCAGAGCUCAACAGAGAGUGGCAAAGUGGCUGUGGCUAGACUGCC [C15G C18A]	0.09
